In patent CN109750002A:

What was measured:
[1] = target: 人BTN3A3 (Butyrophilin subfamily 3 member A3), membrane form on cells (BT474-BTN3A3 overexpressing cells) (human) (UniProt O00478); experiment: adhesion assay by flow cytometry on BT474-BTN3A3 cells, with 5E08 mixed 1:1 (molar) with LSECtin as blocker
[2] = target: 人BTN3A3 (Butyrophilin subfamily 3 member A3), membrane form on cells (BT474-BTN3A3 overexpressing cells) (human) (UniProt O00478); experiment: adhesion assay by flow cytometry on BT474-BTN3A3 cells, with control human IgG; LSECtin-positive ZSG-positive cells / ZSG-positive cells

Sequence of UniProt O00478 (O00478 30-584): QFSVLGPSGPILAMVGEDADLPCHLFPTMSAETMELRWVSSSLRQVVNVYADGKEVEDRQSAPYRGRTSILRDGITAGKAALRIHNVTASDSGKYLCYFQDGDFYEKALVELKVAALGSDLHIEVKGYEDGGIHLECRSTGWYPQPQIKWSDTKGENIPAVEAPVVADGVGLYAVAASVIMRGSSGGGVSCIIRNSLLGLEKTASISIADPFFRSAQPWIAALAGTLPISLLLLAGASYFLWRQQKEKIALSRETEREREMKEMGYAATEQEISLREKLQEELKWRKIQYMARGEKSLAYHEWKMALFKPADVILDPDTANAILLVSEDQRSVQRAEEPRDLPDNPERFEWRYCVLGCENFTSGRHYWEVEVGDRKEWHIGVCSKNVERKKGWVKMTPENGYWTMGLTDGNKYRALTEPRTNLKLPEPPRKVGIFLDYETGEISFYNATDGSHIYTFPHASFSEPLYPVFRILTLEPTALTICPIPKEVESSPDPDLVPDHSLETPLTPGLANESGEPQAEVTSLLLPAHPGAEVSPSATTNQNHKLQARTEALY

- LSECtin粘附率 [1]: 1.4%
- LSECtin粘附率 [2]: 16.1%
B1: LSECtin蛋白 (Liver Sinusoidal Endothelial Cells lectin) (ligand, UniProt Q6UXB4 53-293, looked up)
chain: LSKASTERAALLDGHDLLRTNASKQTAALGALKEEVGDCHSCCSGTQAQLQTTRAELGEAQAKLMEQESALRELRERVTQGLAEAGRGREDVRTELFRALEAVRLQNNSCEPCPTSWLSFEGSCYFFSVPKTTWAAAQDHCADASAHLVIVGGLDEQGFLTRNTRGRGYWLGLRAVRHLGKVQGYQWVDGVSLSFSHWNQGEPNDAWGRENCVMMLHTGLWNDAPCDSEKDGWICEKRHNC
